{"source": "patent US7314724B2", "about": "“Therapeutic applications of laminin and laminin-derived protein fragments” (University of Washington, priority 1996, dated 2008)", "key": {"[1]": {"target": "T1, islet amyloid polypeptide (amylin) (Homo sapiens, UniProt P10997)", "T1 construct": "The major protein in islet amyloid is a 37 amino acid peptide, termed islet amyloid polypeptide or amylin", "T1 sequence (P10997 34-70)": "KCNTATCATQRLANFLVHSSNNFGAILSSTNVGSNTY", "test": "Thioflavin T fluorometry, islet amyloid polypeptide (amylin) fibril formation", "type": "biochemical"}, "Aβ (1-40)": {"target": "T2, Aβ (1-40) (Homo sapiens, UniProt P05067)", "T2 construct": "2 μg of Aβ (1-40)(Bachem Inc., Torrance, Calif. USA; Lot #WM365); purchased Bachem Inc., Torrance, Calif; Lot #WM365", "T2 sequence (P05067 672-711 limits assumed)": "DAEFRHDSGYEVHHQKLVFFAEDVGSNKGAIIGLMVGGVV", "test": "Solid phase binding immunoassay of laminin to substrate bound Aβ (1-40)", "conditions": "one-site model, single binding constant; read-out: apparent dissociation constant Kd, binding to immobilized Aβ (1-40)", "protocol": "2 μg of Aβ (1-40)(Bachem Inc., Torrance, Calif. USA; Lot #WM365) in 40 μl of Tris-buffered saline (TBS)(pH 7.0) was allowed to bind overnight at 4° C. to microtiter wells (Nunc plates, Maxisorb). The next day all of the microtiter wells were blocked by incubating with 300 μl of Tris-buffered saline containing 100 mM Tris-HCl, 50 MM NaCl, 0.05% Tween-20, and 3 mM NaN3 (pH 7.4)(TTBS) plus 2% bovine serum albumin (BSA). Various dilutions (ie. 1:10, 1:30, 1:90, 1:270, 1:810, 1:2430 and 1:7290) of Engelbreth-Holm-Swarm (EHS) mouse tumor laminin (1 mg/ml)(Sigma Chemical Co., St. Louis, Mo., USA) in 250 μl of TBS (pH 7.4) were placed in wells (in triplicate) either containing substrate bound Aβ (1-40) or blank, and allowed to bind overnight at 4° C. overnight. […] The reaction was stopped with 50 μl of 4N H2SO4 and read on a Model 450 microplate reader (Biorad, Hercules, Calif. USA) at 490 nm. Data points representing a mean of triplicate determinations were plotted and the affinity constants (ie. Kd) were determined using Ultrafit (version 2.1, Biosoft, Cambridge, U.K.) as described below.\nThe binding data were analyzed assuming a thermodynamic equilibrium for the formation of the complex BL, from the laminin ligand in solution, L, and the uncomplexed Aβ adsorbed to the microtiter well, B, according to the equation: Kd=[B]×[L]/[BL]. […]"}}, "note": "Entries after “also recorded” stand apart in the source; their conditions may differ."}
{"substance": "laminin: Engelbreth-Holm-Swarm (EHS) mouse tumor laminin (Sigma); 850 kDa basement membrane glycoprotein of A, B1 and B2 chains", "values": [{"measurement": "inhibition of amylin fibrillogenesis, in words", "setting": "[1]; 40 nM, 15 nM and 5 nM laminin, 1 week (FIG. 6)", "value": "no significant inhibition"}, {"measurement": "inhibition of amylin fibril formation, in words", "setting": "[1]; 100 nM laminin, all time points within 1 week (FIG. 6)", "value": "did not significantly inhibit; also recorded: does not significantly inhibit"}, {"measurement": "Kd", "setting": "Aβ (1-40)", "value": 2.7, "unit": "nM"}]}
